According to patent US20220340678A1 (MURAL ONCOLOGY, published 2022):
Values belong to the binder of their own block, whether it stands above or below them.

Tests used:
[1] = biological target: T1, Recombinant mouse uPAR-Fc (R&D Systems, Cat. No. 531-PA-100) (mouse, UniProt P35456 24-297, limits assumed); experiment: SPR (Biacore), mouse uPAR-Fc captured on anti-human antibody chip
T1 construct: not shown: Fc of the bought fusion (captured with the human antibody capture kit); not described
T1 sequence (looked up): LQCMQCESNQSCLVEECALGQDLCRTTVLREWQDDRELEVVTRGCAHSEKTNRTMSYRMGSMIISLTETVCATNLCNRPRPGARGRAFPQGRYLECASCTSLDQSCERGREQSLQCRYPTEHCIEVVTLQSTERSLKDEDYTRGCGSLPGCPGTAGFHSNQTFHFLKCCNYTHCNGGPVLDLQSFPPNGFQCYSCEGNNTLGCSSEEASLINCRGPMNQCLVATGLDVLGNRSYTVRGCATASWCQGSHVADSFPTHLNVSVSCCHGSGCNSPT

[2] = biological target: T1, Recombinant mouse uPAR-Fc (R&D Systems, …); experiment: SPR (Biacore), mouse uPAR-Fc captured on chip; Table 32 prints 0.15
mouse uPAR on cells [3] = biological target: T2, mouse uPAR on cells (mouse, UniProt P35456 24-298); experiment: flow cytometry on EMT6 cells (express mouse uPAR), anti-His detection
T2 construct: whole, on cells; also called Ms-uPAR; mouse uPAR (CD87)
T2 sequence (looked up): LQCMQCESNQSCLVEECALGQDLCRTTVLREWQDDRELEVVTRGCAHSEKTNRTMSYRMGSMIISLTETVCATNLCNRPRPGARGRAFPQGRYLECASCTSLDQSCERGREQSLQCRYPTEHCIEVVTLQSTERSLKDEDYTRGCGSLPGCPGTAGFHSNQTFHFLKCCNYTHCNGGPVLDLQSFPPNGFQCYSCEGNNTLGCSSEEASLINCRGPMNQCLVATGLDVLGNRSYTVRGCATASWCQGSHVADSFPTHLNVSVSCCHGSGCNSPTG

mouse uPAR on cells [4] = biological target: T2, mouse uPAR on cells; experiment: flow cytometry on CT26 cells (express mouse uPAR), anti-His detection
[5] = biological target: T3, IL-2/IL-15 receptor on HH cells (human); experiment: cell-based or functional assay
T3 chain 1: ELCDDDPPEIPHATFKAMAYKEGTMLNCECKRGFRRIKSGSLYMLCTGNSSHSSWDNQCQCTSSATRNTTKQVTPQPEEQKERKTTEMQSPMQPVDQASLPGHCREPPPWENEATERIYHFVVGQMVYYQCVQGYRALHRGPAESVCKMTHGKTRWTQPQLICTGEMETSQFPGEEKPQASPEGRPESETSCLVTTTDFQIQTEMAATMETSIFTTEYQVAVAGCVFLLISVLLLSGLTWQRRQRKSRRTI
T3 chain 2: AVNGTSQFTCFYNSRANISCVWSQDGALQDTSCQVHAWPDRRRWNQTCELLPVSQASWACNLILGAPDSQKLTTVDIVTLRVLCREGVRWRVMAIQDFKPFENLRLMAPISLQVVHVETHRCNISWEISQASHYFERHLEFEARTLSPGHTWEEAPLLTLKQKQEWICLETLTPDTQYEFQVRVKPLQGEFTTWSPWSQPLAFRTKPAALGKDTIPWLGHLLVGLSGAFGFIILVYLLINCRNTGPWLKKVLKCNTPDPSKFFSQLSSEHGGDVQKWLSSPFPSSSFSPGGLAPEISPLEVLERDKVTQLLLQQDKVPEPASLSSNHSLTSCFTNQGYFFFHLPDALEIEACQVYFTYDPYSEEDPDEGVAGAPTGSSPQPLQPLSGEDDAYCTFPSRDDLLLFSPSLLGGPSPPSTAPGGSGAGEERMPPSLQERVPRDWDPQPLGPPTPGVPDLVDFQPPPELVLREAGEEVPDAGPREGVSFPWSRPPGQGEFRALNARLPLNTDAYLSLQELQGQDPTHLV
T3 chain 3: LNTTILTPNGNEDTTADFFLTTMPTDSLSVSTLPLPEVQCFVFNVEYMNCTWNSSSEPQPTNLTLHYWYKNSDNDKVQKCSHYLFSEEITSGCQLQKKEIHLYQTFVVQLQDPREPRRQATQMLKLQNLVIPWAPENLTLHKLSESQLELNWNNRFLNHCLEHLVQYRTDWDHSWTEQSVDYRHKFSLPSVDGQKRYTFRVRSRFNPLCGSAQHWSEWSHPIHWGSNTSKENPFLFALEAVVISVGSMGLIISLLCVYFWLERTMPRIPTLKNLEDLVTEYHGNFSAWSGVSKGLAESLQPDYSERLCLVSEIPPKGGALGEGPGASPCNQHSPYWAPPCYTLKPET

[6] = biological target: Human uPAR DII-DIII domain HisAvi Tag (human, biotinylated (site not stated)); experiment: BLI (Octet), biotinylated domain on SA sensor, antibody 200 nM
[7] = biological target: T4, Human uPAR DIII domain HisAvi Tag (human, biotinylated (site not stated)); experiment: as above
T4 chain: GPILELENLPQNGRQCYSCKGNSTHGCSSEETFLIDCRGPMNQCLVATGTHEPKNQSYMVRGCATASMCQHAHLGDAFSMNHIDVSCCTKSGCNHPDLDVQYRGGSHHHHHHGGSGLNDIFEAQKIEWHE

biotinylated human uPAR [8] = biological target: T5, biotinylated human uPAR (human, UniProt Q03405 23-303, limits assumed, biotinylated (site not stated)); experiment: BLI (Octet) on biotinylated human uPAR; row 'None': no first antibody
[9] = biological target: T6, histidine-tagged human uPAR (Sino#10925-H08H) (human, UniProt Q03405 23-303); experiment: BLI (Octet), antibody on anti-mouse Fc sensor, uPAR in solution
T6 construct: also called uPAR-His

[10] = biological target: T6, histidine-tagged human uPAR …; experiment: BLI (Octet), uPAR on sensor, antibody in solution (avidity)
biotinylated human uPAR [11] = biological target: T5, biotinylated human uPAR; experiment: BLI (Octet) competition on biotinylated human uPAR; competitor (first antibody): M1
biotinylated human uPAR [12] = biological target: T5, biotinylated human uPAR; experiment: BLI (Octet) competition on biotinylated human uPAR; competitor (first antibody): ATN-368 (ATN-658)
biotinylated human uPAR [13] = biological target: T5, biotinylated human uPAR; experiment: BLI (Octet) competition on biotinylated human uPAR; competitor (first antibody): M5
[14] = biological target: T7, human uPAR expressed on HEK293 cells (human, UniProt Q03405 23-305); experiment: flow cytometry, HEK293 cells expressing human uPAR, 100 nM uPA present
T7 construct: whole, on cells; also called Hu-uPAR

mouse uPAR on cells [15] = biological target: T2, mouse uPAR on cells; experiment: flow cytometry on 4T1 cells (express mouse uPAR), anti-His detection
[16] = biological target: IL-2/IL-15 receptor on primary mouse splenocytes (mouse); experiment: cell-based or functional assay
mouse uPAR on cells [17] = biological target: T2, mouse uPAR on cells; experiment: flow cytometry on MC38 cells (express mouse uPAR), anti-His detection

Kd [1]: 0.15 nM | koff [1]: 0.00032 s⁻¹ | kon [1]: 2.2e+06 M⁻¹ s⁻¹ | Kd [2]: 0.14 nM
B1: Mouse uPA-ATF His6 (ligand)
chain: GSVLGAPDESNCGCQNGGVCVSYKYFSRIRRCSCPRKFQGEHCEIDASKTCYHGNGDSYRGKANTDTKGRPCLAWNAPAVLQKPYNAHRPDAISLGLGKHNYCRNPDNQKRPWCYVQIGLRQFVQECMVHDCHHHHHH
notes: also called 104

EC50 (mouse uPAR on cells [3]): 0.54 nM | Kd [1]: 0.12 nM | koff [1]: 0.00023 s⁻¹ | kon [1]: 1.9e+06 M⁻¹ s⁻¹ | EC50 (mouse uPAR on cells [4]): 1.4 nM | pSTAT5 EC50, HH cells [5]: 1.6 nM
B2: Human cpIL-2:IL-2Ra:Human uPA-ATF (N22Y, W30R)-His6 (other)
chain: SKNFHLRPRDLISNINVIVLELKGSETTFMCEYADETATIVEFLNRWITFSQSIISTLTGGSSSTKKTQLQLEHLLLDLQMILNGINNYKNPKLTRMLTFKFYMPKKATELKHLQCLEEELKPLEEVLNLAQGSGGGSELCDDDPPEIPHATFKAMAYKEGTMLNCECKRGFRRIKSGSLYMLCTGNSSHSSWDNQCQCTSSATRNTTKQVTPQPEEQKERKTTEMQSPMQPVDQASLPGHCREPPPWENEATERIYHFVVGQMVYYQCVQGYRALHRGPAESVCKMTHGKTRWTQPQLICTGGGSGGSNELHQVPSNCDCLNGGTCVSYKYFSNIHRCNCPKKFGGQHCEIDKSKTCYEGNGHFYRGKASTDTMGRPCLPWNSATVLQQTYHAHRSDALQLGLGKHNYCRNPDNRRRPWCYVQVGLKPLVQECMVHDCAHHHHHH
notes: also called 110

binding result [6]: binds | binding result [7]: binds | response in competition assay (biotinylated human uPAR [8]): 0.305 | Kd [9]: 0.511 nM | koff [9]: 0.00034 s⁻¹ | kon [9]: 664000 M⁻¹ s⁻¹ | Kd [10]: < 1 pM | koff [10]: < 1e-07 s⁻¹ | kon [10]: 448000 M⁻¹ s⁻¹ | response in competition assay (biotinylated human uPAR [11]): -0.0441 | response in competition assay (biotinylated human uPAR [12]): -0.0232 | response in competition assay (biotinylated human uPAR [13]): 0.365 | EC50 [14]: 0.66 nM
B3: M1 (antibody, V domains shown)
VH: EVQLQQSGAELVRPGASVKLSCTASGFNIKDEYINWVKQRPEQGLEWIGWIDPENGDTEYASKFQGKATITADTSSNTAYLQLSSLTSEDTAVYYCTGGNYVGWFPYWGQGTLVTVSA
VL: QIVLTQSPAIMSASPGEKVTMTCSASSSVSYMHWYQQKSGTSPKRWLYDTSKLASGVPARFSGSGSGTSYSLTISSMEAEDAATYYCQQWSSNPPYTFGGGTKLEIK
notes: Mouse hybridoma antibody; also called anti-uPAR antibody M1; parental M1

EC50 (mouse uPAR on cells [15]): 1 nM | EC50 (mouse uPAR on cells [3]): 0.41 nM | Kd [1]: 0.19 nM | koff [1]: 0.00026 s⁻¹ | kon [1]: 1.3e+06 M⁻¹ s⁻¹ | pSTAT5 EC50, mouse NK cells [16]: 20 nM | pSTAT5 EC50, mouse Tregs [16]: 17 nM | pSTAT5 EC50, mouse memory CD8 T cells [16]: 27 nM | EC50 (mouse uPAR on cells [4]): 1.3 nM | EC50 (mouse uPAR on cells [17]): 0.71 nM
B4: Mouse cpIL-2:IL-2Ra:mouse uPA-ATF-His6 (other)
chain: SKSFQLEDAENFISNIRVTVVKLKGSDNTFECQFDDESATVVDFLRRWIAFCQSIISTSPQGGSSSTQQQQQHLEQLLMDLQELLSRMENYRNLKLPRMLTFKFYLPKQATELKDLQCLEDELGPLRHVLDLTQGSGGGSELCLYDPPEVPNATFKALSYKNGTILNCECKRGFRRLKELVYMRCLGNSWSSNCQCTSNSHDKSRKQVTAQLEHQKEQQTTTDMQKPTQSMHQENLTGHCREPPPWKHEDSKRIYHFVEGQSVHYECIPGYKALQRGPAISICKMKCGKTGWTQPQLTCVDGGSGGGSVLGAPDESNCGCQNGGVCVSYKYFSRIRRCSCPRKFQGEHCEIDASKTCYHGNGDSYRGKANTDTKGRPCLAWNAPAVLQKPYNAHRPDAISLGLGKHNYCRNPDNQKRPWCYVQIGLRQFVQECMVHDCHHHHHH
notes: also called 101
